Test results reported in patent US7812117B2, “Vasostatin as marrow protectant” (The United States of America as represented by the …, priority 1998, dated 2010).

How the values were obtained:
[1] = test system: peripheral blood white cells
Method: Mice (C57BL/B6, females, 7.5 weeks old) were treated for 1 week with daily inoculations of vaso (300 μg/mouse) or buffer alone. On day 8, the mice received cytoxan (1 or 2 mg/mouse) and continued daily inoculation with buffer or vaso. Peripheral blood white cell counts were measured on day 5 after administration of cytoxan.
C57BL6J mice (7 weeks of age) were first treated for 7 days daily with either buffer (100 μl s.c.) or vaso (300 μg/mouse in 100 μl of buffer s.c.). On day 8, groups of mice (n=6) pretreated with either buffer or vaso were injected with cyclophosphamide (1.0 or 2.0 mg/mouse) and continued on daily inoculations of buffer (100 μl s.c.) or vaso (300 μg/mouse in 100 μl of buffer s.c.). Additional control mice were treated with only buffer or vaso for 5 additional days. On days 3 and 5 after cyclophosphamide injection, ½ of the mice were killed for evaluation of the bone marrow and peripheral blood.

[2] = test system: Burkitt lymphoma cells (CA46 cell line); assay: Burkitt lymphoma CA46 tumor growth in athymic mice treated with vaso and/or cyclophosphamide; assay type: in vivo, human; conditions: vaso 200 μg/day s.c., cyclophosphamide 260 μg/mouse/day i.p. for 26 days; for average tumor size: buffer control 5.85; for average tumor weight: buffer control 6.75
Method: Groups of 6-8 athymic BALB/c nu/nu mice, 6 weeks of age, were first irradiated with 400 rad, and 24 hr later were inoculated s.c. with 8×10^6 Burkitt lymphoma cells (CA46 cell line). Beginning 24 hr after cell inoculation, one group (n=6) of mice received daily s.c. inoculations of buffer alone (100 μl); a second group (n=6) received daily s.c. inoculations of a fusion protein of maltose binding protein and vasostatin, MBP-vaso, alone (200 μg in 100 μl of buffer); a third group (n=8) received daily s.c. inoculations of buffer alone (100 μl) plus cyclophosphamide once on day 9 post cell inoculation (2.6 mg i.p. in 100 μl of buffer); a fourth group (n=8) received daily s.c. inoculations of vaso (200 μg in 100 μl of buffer) plus cyclophosphamide once on day 9 post cell inoculation (2.6 mg i.p. in 100 μl of buffer); a fifth group received daily s.c. inoculations of buffer alone (100 μl) plus daily i.p. inoculations of cyclophosphamide (260 μg/mouse in 100 μl of buffer); and a sixth group received daily s.c. inoculations of vaso (200 μg/mouse in 100 μl of buffer) plus daily i.p. inoculations of cyclophosphamide (260 μg/mouse in 100 μl of buffer).

[3] = test system: peripheral blood white cells; remark: listed apart in the source
Method: Groups of mice (C57BL/B6, 6 weeks old, 10 mice/group) were treated for 4 days with either buffer (PBS, 100 μl/mouse/day), native vaso (200 μg/mouse/day s.c) or denatured vaso ([…]). On day 5, some of the animals were treated with cytoxan and the original treatment with buffer, native or denatured vaso was continued. On day 9 (5 days after one half of the mice had received cytoxan), peripheral blood white cell counts were measured.
To examine whether the effects of vaso on the hematopoietic system are attributable to the native protein, the effects of native vaso were compared with the effects of vaso that had been denatured by boiling. Groups of mice (n=10) were treated for 4 days with either buffer (100 μl/mouse s.c); native vaso (200 μg/mouse/day s.c); or denatured vaso (300 μg/mouse/day s.c). On day 5, some of the mice were injected with cyclophosphamide (2 mg/mouse/i.p.) and treatment continued with either buffer, native vaso or denatured vaso. The experiment was terminated on day […], at which time peripheral blood counts were measured.

murine bone marrow cells [4] = assay: Murine bone marrow cell proliferation in vitro ([3H] thymidine incorporation)
[5] = test system: human umbilical vein-derived (HUVEC) endothelial cells; conditions: as previously reported (Pike et al., 1998; 1999); cited from earlier work
murine bone marrow cells [6] = test system: murine bone marrow cells
[7] = test system: CD34- mononuclear cell population; assay: Proliferation of negatively selected human CD34- mononuclear cells; assay type: cell-based; conditions: Stem Cell Factor and Flt-3 ligand alone or in conjunction with vaso
Method: The purified human CD34+ cells along with the negatively selected CD34− mononuclear cell population were cultured in RPMI 1640 medium containing 15% FBS. Human Stem Cell Factor (300 ng/ml) and Flt-3 ligand (300 ng/ml) were added to the culture medium. […] Thus, purified hematopoietic cells from both mouse and man proliferate in response to vaso.

[8] = vaso 10 μg/ml in the presence of growth factors

With `O=P1(N(CCCl)CCCl)NCCCO1` (centres unmarked) [cyclophosphamide, reference compound] the “peripheral blood white cell counts on day 5 after cyclophosphamide” value ([1]; cyclophosphamide 2.0 or 1.0 mg/mouse alone, vs buffer or vaso alone controls) was “significantly reduced”, the average tumor size [2] was 4.98 cm^2 and the average tumor weight [2] was 4.69 g. For the same molecule, the “peripheral blood white cell counts” value ([3]; cyclophosphamide 2 mg/mouse i.p. with buffer, vs buffer-only controls) was “markedly reduced”.

B1: vaso: N-terminal domain of calreticulin (amino acids 1-180, SEQ ID NO:3); given as fusion protein with maltose binding protein, MBP-vaso (protein)
chain: EPAVYFKEQFLDGDGWTSRWIESKHKSDFGKFVLSSGKFYGDEEKDKGLQTSQDARFYALSASFEPFSNKGQTLVVQFTVKHEQNIDCGGGYVKLFPNSLDQTDMHGDSEYNIMFGPDICGPGTKKVHVIFNYKGKNVLINKDIRCKDDEFTHLYTLIVRPDNTYEVKIDNSQVESGSLE
modifications: Vasostatin
With B1 the “murine bone marrow cell proliferation with or without cisplatinum” value (murine bone marrow cells [4]; Vaso 10 μg/ml, IL-3 (30 μg/ml), cisplatinum between 5 and 0.02 nM) was “enhanced murine bone marrow cell proliferation”, the “growth of murine hematopoietic cells after 5 or 6 days of culture” value (murine bone marrow cells [4]; all used at 10 μg/ml, IL-3 20 ng/ml) was “stimulated the growth” and the “bone marrow cell proliferation vs growth factors alone” value (murine bone marrow cells [4]; day 5, vaso 12.5-50 μg/ml added to IL-3 plus IL-6 plus Stem Cell Factor) was 21-54 fold. For the same molecule, the “mafosfamide concentrations at which growth stimulatory effect of vaso was appreciable” value (murine bone marrow cells [4]; mafosfamide added after 3 days of culture) was ≤ 8 µg/mL, the “increase in cell proliferation on day 5” value (murine bone marrow cells [4]; unseparated marrow, vaso 10 μg/ml, IL-3 20 ng/ml) was 3.4 fold and the “direct stimulation of bone marrow cell proliferation” value (murine bone marrow cells [4]; vaso 10 μg/ml in medium alone, no growth factors) was “failed to directly stimulate”. The “promotion of bone marrow cell proliferation on day 5” value (murine bone marrow cells [4]; [8]) was 39 fold, the “promotion of bone marrow cell proliferation on day 6” value (murine bone marrow cells [4]; [8]) was 17 fold and the “promotion of bone marrow cell proliferation on day 4” value (murine bone marrow cells [4]; vaso 10 μg/ml in the presence of growth factors (IL-3, IL-6, stem cell factor)) was 6.5 fold. For the same molecule, the “stimulation of background cpm” value (murine bone marrow cells [4]; vaso 10 μg/ml, absence of exogenously added growth factors, 7 day culture) was “approximately 2 fold”, the “promotion of bone marrow cell proliferation in the presence of Etoposide” value (murine bone marrow cells [4]; vaso 10 μg/ml, Etoposide 77 nM, growth factors) was “to the same or greater degree than in the absence of Etoposide” and the “increase of IL-3-induced bone marrow proliferation in the presence of Etoposide” value (murine bone marrow cells [4]; vaso 10 μg/ml, Etoposide 385-15.4 nM, day 5) was “evident even in the presence of Etoposide”. The “bone marrow cell proliferation induced by IL-3, day 5” value (murine bone marrow cells [4]; vaso 10 μg/ml, IL-3 20 ng/ml) was “enhanced bone marrow cell proliferation”, the “enhancement of IL-3 induced response on day 4” value (murine bone marrow cells [4]; vaso 10 μg/ml, IL-3 20 ng/ml) was “approximately 3 fold” and the “enhancement of proliferative response on day 5 or 6” value (murine bone marrow cells [4]; vaso 10 μg/ml, IL-3 or combination of IL-3, IL-6 and Stem Cell Factor) was 7-16 fold. For the same molecule, the “proliferative response on day 3” value (murine bone marrow cells [4]; vaso 10 μg/ml, combination of IL-3, IL-6 and Stem Cell Factor) was “enhanced the response induced by the combination of IL-3, IL-6 and Stem Cell Factor slightly”, the “proliferation of bone marrow cells exposed to mafosfamide” value (murine bone marrow cells [4]; vaso 12.5 μg/ml, growth factors, 6 days culture) was “markedly enhanced” and the “bone marrow cell proliferation in the presence of methotrexate” value (murine bone marrow cells [4]; vaso 0.25-10 μg/ml, methotrexate 100 nM and growth factors, 7 day culture) was “dose-dependently stimulated”. The “reduction in peripheral blood white cell counts caused by cyclophosphamide, day 5” value ([1]; cyclophosphamide 2.0 or 1.0 mg/mouse with vaso 300 μg/mouse/day) was “alleviated”, the “proliferation of primary cultures of HUVEC” value [5] was “consistently inhibited the proliferation” and the average tumor size [2] was 4.85 cm^2. For the same molecule, the average tumor weight [2] was 3.79 g, the “bone marrow cell proliferation induced by IL-3 at the highest dose of cisplatinum” value (murine bone marrow cells [6]) was “minimal” and the “proliferation of CD34- cell population” value [7] was “proliferated minimally”. For the same molecule, the “peripheral blood white cell counts after cyclophosphamide (alleviation of toxicity)” value ([3]; cyclophosphamide 2 mg/mouse i.p. plus native vaso 200 μg/mouse/day s.c. or denatured vaso 300 μg/mouse/day s.c.) was “minimally different from those of the control mice”.
